Assay results from paper PMC5157838 (Analytical chemistry, 2015).
Where “and” joins values, the source holds several entries; their conditions need not be identical. Identical values can stand only once.

Biological target: the molecule itself
Experiment: native MS

B1: Glutamate dehydrogenase, purified from bovine liver (enzyme)
chain: not shown
stoichiometry N: 6 and 12
